Results reported in patent CN108752475A (BEIJING WISDOMAB BIOTECHNOLOGY CO LTD, dated 2018).
Substitutions are numbered along the chain they refer to. Read-outs that look alike come from different tables or passages of the source.

T1: 小鼠CD38胞外区 (mCD38) with C-terminal His tag, mCD38-his (mouse (mus musculus), UniProt P56528 45-304)
T1 construct: Recombinant, made in HEK293 cells; coated on the ELISA plate; not shown: His tag added at the C-terminus
T1 sequence: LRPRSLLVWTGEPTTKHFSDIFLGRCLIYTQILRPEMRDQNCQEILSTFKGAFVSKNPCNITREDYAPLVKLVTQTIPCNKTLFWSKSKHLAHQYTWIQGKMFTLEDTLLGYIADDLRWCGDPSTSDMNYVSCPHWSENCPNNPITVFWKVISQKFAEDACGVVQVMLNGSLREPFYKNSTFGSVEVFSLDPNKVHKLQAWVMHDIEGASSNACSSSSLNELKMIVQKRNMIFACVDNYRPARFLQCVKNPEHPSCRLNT

B1: S5B8 (mouse-human chimeric antibody, human IgG1) (antibody, V domains shown)
VH: QVQLQQSGSVLVRPGVSVKLSCKASGYAFTNSWMHWAKQRPGQGLEWIGEIHPQSGRTNYNEKFKGKATLTVDTSSSTAYVDFSSLTSEDSAVYYCARDLLQFGNQYYYAMDYWGQGTSVTVSS
VL: DVVMTQTPLSLPVSLGDQASISCRSSQSLVHSNGNTYLHWYLQKPGQSPKLLIYKVSNRFSGVPDRFSGSGSGTDFTLKISRVEAEDLGVYFCSQSTHVPLTFGAGTKLEMK
notes: Tested as a recombinant human IgG1-kappa/lambda mouse-human chimeric antibody; also called 鼠单抗S5B8
B2: S5B8VH-h2+S5B8VK-h2 (antibody, human IgG1, V domains shown)
VH: QVQLVQSGAEVKKPGASVKVSCKASGYAFTNSWMHWVRQAPGQGLEWMGEIHPQSGRTNYNEKFKGRVTMTRDTSTSTVYMELSSLRSEDTAVYYCARDLLQFGNQYYYAMDYWGQGTLVTVSS
VL: B1 VL with V2I, S14T, L15P, D17E, Q18P, K50Q, L88V, F92Y, A105Q, M111I
notes: Humanized, expressed as a human IgG1 whole antibody; also called S5B8人源化分子
B3: S5E3 (mouse-human chimeric antibody, human IgG1) (antibody)
scFv: QVQLQQSGPEVVKPGASVKMSCKATGYTSRSYWIEWVKQRPGHGLEWIGEILPGSGSTNYNEKFKGKATFTADTSSNTAYMQLSSLTSEDSAVYYCARWDGNYGDFVLDYWGQGTSVTVSSGGGGSGGGGSGGGGSDIQMTQSPSSMYASLGERVTITCKASQDINSYLSWFQQKPGKSPKTLIYRANRLVDGVPSRFSGSGSGQDYFLTISSLEYEDMGIYYCLQYDEFPYTFGGGTKLEMK
notes: Tested as a human IgG1-kappa/lambda chimeric antibody built from the variable domains of this scFv
B4: S5A10-h1 (antibody, human IgG1, V domains shown)
VH: QVQLVQSGAEVKKPGSSVKVSCKASDYPFISYTIHWVRQAPGQGLEWMGYINPSNGYTNYNQKFKDRVTITADKSTSTAYMELSSLRSEDTAVYYCARKYGNFYAMDYWGQGTLVTVSS
VL: DIQMTQSPSSLSASVGDRVTITCRASENIYSYLAWYQQKPGKAPKLLIYNAKTLAEGVPSRFSGSGSGTDFTLTISSLQPEDFATYYCQHHYGTPYTFGQGTKLEIK
notes: Humanized, expressed as a human IgG1 whole antibody; also called S5A10VH-h1+S5A10VK-h1; S5A10人源化分子
B5: S5B5 (mouse-human chimeric antibody, human IgG1) (antibody)
scFv: QVKLQQFGAELVKPGASVKISCKATGYTFSSYWIGWVKQRPGHGLEWIGEILPGTGSTNYNEKFKDKATFTADTSPNTAYMQLSSLTSEDSAVYYCARWDGNYGDYALDYWGQGTSVTVSAGGGGSGGGGSGGGGSDIVMTQSPSSMYASLGERVTITCKASQDINSYLSWFQQKPGKSPKTLIYRANRLVDGVPSRFSGSGSGQDYSLTISSLEYEDMGIYYCLQYDEFPYTFGGGTKLEIK
notes: as for B3
B6: S5B4 (mouse-human chimeric antibody, human IgG1) (antibody)
scFv: QVKLQQSGAELMKPGASVKISCKATGYTFSSYWIGWLKQRPGHGLEWVGELLPGSGSTNYNEKFKGKATFTADTSSNTAYMQLSSLTSEDSAVYYCARWDGNYGDYTLDYWGQGTSVTVSSGGGGSGGGGSGGGGSDIVMTQSPSSMYASLGERVTITCKASQDINSYLSWFQQKPGKSPKTLIYRANRLVDGVPSRFSGSGSGQDYSLTISSLEYEDMGIYYCLQYDEFPYTFGGGTKLEMK
notes: as for B3
B7: S5B8VH-h1+S5B8VK-h1 (antibody, human IgG1, V domains shown)
VH: B2 VH with G44R, M70I, T76A, V79A
VL: DVVMTQSPLSLPVTLGQPASISCRSSQSLVHSNGNTYLHWFQQRPGQSPRRLIYKVSNRFSGVPDRFSGSGSGTDFTLKISRVEAEDVGVYYCSQSTHVPLTFGQGTKLEIK
notes: as for B2
B8: S5B8VH-h1+S5B8VK-h2 (antibody, human IgG1, V domains shown)
VH: B2 VH with G44R, M70I, T76A, V79A
VL: B7 VL with V2I, S7T, L15P, Q17E, F41Y, Q42L, R44K, R50Q, R51L
notes: as for B2
B9: S5B8VH-h2+S5B8VK-h1 (antibody, human IgG1, V domains shown)
VH: B2 VH
VL: B7 VL
notes: as for B2
B10: S5D3 (mouse-human chimeric antibody, human IgG1) (antibody)
scFv: QVQLQQSGAELMKPGASVKISCKATGYTSSSYWIEWVKQRPGHGLEWIGEILPGSGSTNYNEKFKGKATFTADTSSNTAYMQLSSLTSEDSAVYYCARLYDNSYFDYWGQGTSLTVSSGGGGSGGGGSGGGGSDIVMTQSPSSMYASLGERVTITCKASQDINSYLSWFQQKPGKSPKTLIYRANRLVDGVPSRFSGSGSGQDYSLTISSLEYEDMGIYYCLQYDEFPYTFGGGTKLEMK
notes: as for B3
B11: S5B7 (mouse-human chimeric antibody, human IgG1) (antibody)
scFv: QVQLQQPGSVLVRPGASVKLSCKATGYTFSSYWIEWVKQRPGHGLEWIGDILPGTGTTNYNEKFKGKATFTADTSSNTAYMQFSSLTSEDSAVYYCASSYGNYVWGQGTSLTVSSGGGGSGGGGSGGGGSDVVMTQSPASLAVSLGQRATISCKASQSVDYDGDSYMNWYQQKPGQPPRLLIYAASNLESGIPARFSGSGSGTDFTLNIHPVEEEDAATYYCQQGNGAPRTFGGGTKLEIK
notes: as for B3

Key:
[1] = target: T2, 人CD38胞外区 (hCD38) with C-terminal His tag, hCD38-his (human (homo sapiens), UniProt P28907 43-300); assay: SPR (Biacore), antibody captured by anti-human Fc on CM5, hCD38 as analyte, 25 °C
T2 construct: Recombinant, made in HEK293 cells; not shown: His tag added at the C-terminus

[2] = target: T3, 食蟹猴CD38胞外区 (mfCD38) with C-terminal His tag, mfCD38-his (cynomolgus monkey (Macaca fascicularis), UniProt Q5VAN0 44-301); assay: SPR (Biacore), antibody captured by anti-human Fc on CM5, mfCD38 as analyte
T3 construct: not shown: His tag added at the C-terminus
T3 sequence (Q5VAN0 44-301): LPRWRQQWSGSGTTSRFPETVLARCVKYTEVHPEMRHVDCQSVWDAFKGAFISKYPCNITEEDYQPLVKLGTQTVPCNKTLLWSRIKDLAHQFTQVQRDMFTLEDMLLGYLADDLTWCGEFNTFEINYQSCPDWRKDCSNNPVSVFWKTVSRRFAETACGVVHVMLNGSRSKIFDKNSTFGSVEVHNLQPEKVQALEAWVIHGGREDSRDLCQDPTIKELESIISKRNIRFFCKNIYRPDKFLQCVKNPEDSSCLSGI

[3] = target: T1, 小鼠CD38胞外区 (mCD38) with C-terminal His …; assay: ELISA, mCD38-his coated at 1.5 μg/ml, HRP anti-human IgG detection
[4] = target: T2, 人CD38胞外区 (hCD38) with C-terminal His …; assay: SPR (Biacore), antibody captured by anti-human Fc on CM5, hCD38 as analyte, 25 °C; remark: listed apart in the source

Binder	Kd [1] [nM]	Kd [2] [nM]	binding result [3]	Kd [4] [nM]
B1	0.178	3.14	no binding	–
B2	0.0486	3.48	–	–
B3	–	–	no binding	–
B4	–	–	–	2.73
B5	–	–	no binding	–
B6	–	–	no binding	–
B7	0.371	13.6	–	–
B8	0.0894	5.15	–	–
B9	0.406	9.66	–	–
B10	–	–	no binding	–
B11	–	–	no binding	–
